From publication PMC3146532, “Multiple ATR-Chk1 Pathway Proteins Preferentially Associate with Checkpoint-Inducing DNA Substrates”

Columns and labels:
His-Chk1 = target: T1, His-Chk1 (UniProt O14757 1-476); test: pull-down; 10 mM Tris pH 7.4, 50 mM NaCl (oligo DNA) or 100 mM NaCl (plasmid; 200/300 mM for TopBP1 salt series), 10 ug/ml BSA, 10% glycerol, 0.01% NP-40, room temperature, 30 min; bead pull-down with immunoblot; settings: protein: recombinant, tags: His
T1 sequence: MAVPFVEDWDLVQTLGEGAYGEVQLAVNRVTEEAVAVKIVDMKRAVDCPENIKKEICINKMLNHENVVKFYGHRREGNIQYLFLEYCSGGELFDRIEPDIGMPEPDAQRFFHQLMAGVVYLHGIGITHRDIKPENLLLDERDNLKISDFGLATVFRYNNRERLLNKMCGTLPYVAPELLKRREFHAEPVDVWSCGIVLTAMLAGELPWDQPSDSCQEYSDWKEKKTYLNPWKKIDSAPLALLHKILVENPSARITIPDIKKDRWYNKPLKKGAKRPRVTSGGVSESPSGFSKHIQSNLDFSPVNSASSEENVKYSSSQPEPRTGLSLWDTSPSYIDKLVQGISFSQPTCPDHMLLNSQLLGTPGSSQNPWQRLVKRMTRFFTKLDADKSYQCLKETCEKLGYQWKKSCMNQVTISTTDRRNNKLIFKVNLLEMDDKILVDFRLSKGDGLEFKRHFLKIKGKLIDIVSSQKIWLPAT

FAAP24-His = target: T2, FAAP24-His (UniProt Q9BTP7 1-215); test: as above; settings: protein: recombinant, tags: His (pET21b)
T2 sequence: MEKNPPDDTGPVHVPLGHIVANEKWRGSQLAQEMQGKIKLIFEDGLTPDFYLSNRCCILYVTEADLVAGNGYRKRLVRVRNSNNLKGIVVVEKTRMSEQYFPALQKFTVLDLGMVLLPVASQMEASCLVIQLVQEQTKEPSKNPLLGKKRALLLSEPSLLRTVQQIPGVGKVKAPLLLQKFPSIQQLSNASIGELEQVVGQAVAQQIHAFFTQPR

RPA (heterotrimer) = RPA (heterotrimer) (UniProt P27694;P15927;P35244 1-616;1-270;1-121); test: pull-down; up to 10-fold more than dsDNA; 10 mM Tris pH 7.4, 50 mM NaCl (oligo DNA) or 100 mM NaCl (plasmid; 200/300 mM for TopBP1 salt series), 10 ug/ml BSA, 10% glycerol, 0.01% NP-40, room temperature, 30 min; bead pull-down with immunoblot; settings: protein: recombinant, copies: 1;1;1
Chain of RPA (heterotrimer) (P27694 whole entry, chain 1 of 3): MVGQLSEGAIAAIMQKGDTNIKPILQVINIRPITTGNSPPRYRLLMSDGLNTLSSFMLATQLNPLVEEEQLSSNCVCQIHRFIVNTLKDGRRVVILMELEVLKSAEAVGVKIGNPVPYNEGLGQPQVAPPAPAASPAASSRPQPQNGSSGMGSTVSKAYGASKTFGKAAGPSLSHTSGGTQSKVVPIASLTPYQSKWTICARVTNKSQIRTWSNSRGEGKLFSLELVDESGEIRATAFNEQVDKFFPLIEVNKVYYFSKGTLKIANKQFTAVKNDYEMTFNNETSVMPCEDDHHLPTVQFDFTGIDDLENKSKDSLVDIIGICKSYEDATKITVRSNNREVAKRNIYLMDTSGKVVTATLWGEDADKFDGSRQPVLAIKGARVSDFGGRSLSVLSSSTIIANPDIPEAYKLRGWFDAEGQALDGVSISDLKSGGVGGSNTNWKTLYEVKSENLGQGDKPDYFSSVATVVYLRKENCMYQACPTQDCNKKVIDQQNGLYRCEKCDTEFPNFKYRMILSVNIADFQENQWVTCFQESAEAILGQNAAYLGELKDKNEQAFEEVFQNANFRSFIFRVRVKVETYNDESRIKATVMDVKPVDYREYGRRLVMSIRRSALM
Chain of RPA (heterotrimer) (P15927 whole entry, chain 2 of 3): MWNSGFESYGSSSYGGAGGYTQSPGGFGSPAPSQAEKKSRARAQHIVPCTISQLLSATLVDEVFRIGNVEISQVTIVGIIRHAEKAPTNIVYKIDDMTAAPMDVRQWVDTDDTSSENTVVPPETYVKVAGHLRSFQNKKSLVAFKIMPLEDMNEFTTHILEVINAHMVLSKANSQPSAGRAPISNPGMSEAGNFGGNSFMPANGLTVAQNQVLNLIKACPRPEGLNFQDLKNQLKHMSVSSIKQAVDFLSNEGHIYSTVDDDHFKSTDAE
Chain of RPA (heterotrimer) (P35244 whole entry, chain 3 of 3): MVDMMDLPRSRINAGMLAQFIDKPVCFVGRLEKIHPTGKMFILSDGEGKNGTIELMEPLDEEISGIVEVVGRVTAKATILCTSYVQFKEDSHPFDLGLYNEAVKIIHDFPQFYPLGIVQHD

FLAG-ATRIP = target: T3, FLAG-ATRIP (UniProt Q8WXE1 1-791); test: pull-down; without RPA; 10 mM Tris pH 7.4, 50 mM NaCl (oligo DNA) or 100 mM NaCl (plasmid; 200/300 mM for TopBP1 salt series), 10 ug/ml BSA, 10% glycerol, 0.01% NP-40, room temperature, 30 min; bead pull-down with immunoblot; settings: protein: recombinant; tags: FLAG; label: 5'-biotin on Oligo1; fork 1:2; 31 bp duplex, two 19 nt unpaired arms (3' of Oligo1, 5' of Oligo2)
T3 sequence: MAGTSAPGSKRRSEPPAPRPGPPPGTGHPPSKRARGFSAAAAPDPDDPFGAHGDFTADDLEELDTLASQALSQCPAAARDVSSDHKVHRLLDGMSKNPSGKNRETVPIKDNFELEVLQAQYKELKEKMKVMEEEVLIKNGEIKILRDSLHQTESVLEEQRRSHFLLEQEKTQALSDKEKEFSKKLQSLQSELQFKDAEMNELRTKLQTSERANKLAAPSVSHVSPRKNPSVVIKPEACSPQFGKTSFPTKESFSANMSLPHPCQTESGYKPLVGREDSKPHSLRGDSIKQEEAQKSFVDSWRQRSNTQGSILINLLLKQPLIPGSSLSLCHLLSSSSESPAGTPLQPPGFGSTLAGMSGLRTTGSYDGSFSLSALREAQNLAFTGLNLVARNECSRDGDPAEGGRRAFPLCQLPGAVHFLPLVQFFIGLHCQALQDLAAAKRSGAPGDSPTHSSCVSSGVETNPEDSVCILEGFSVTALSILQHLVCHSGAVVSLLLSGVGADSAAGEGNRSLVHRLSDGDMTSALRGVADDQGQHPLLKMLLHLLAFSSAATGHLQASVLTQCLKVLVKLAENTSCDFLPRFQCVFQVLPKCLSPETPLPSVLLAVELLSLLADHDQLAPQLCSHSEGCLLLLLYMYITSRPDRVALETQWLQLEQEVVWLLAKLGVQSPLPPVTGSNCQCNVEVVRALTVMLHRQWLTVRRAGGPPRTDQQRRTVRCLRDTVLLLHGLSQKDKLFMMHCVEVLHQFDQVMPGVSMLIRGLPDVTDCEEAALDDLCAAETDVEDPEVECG

Tipin-His = target: T4, Tipin-His (UniProt Q9BVW5 1-301); test: pull-down; >10-fold over ssDNA or dsDNA at highest protein; 10 mM Tris pH 7.4, 50 mM NaCl (oligo DNA) or 100 mM NaCl (plasmid; 200/300 mM for TopBP1 salt series), 10 ug/ml BSA, 10% glycerol, 0.01% NP-40, room temperature, 30 min; bead pull-down with immunoblot; settings: protein: recombinant; tags: His; label: 5'-biotin on Oligo1; fork 1:2; 31 bp duplex, two 19 nt unpaired arms (3' of Oligo1, 5' of Oligo2)
T4 sequence: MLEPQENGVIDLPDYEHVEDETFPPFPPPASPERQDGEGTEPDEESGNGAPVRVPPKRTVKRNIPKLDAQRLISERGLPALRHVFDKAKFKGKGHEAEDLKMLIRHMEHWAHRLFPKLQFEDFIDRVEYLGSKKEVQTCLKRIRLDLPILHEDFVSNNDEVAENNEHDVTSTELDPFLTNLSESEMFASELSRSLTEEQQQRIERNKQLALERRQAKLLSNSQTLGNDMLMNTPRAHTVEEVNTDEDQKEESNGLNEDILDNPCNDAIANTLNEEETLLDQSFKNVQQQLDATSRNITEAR

MBP-XPA = MBP-XPA (UniProt P23025 1-273); test: pull-down; 10 mM Tris pH 7.4, 50 mM NaCl (oligo DNA) or 100 mM NaCl (plasmid; 200/300 mM for TopBP1 salt series), 10 ug/ml BSA, 10% glycerol, 0.01% NP-40, room temperature, 30 min; bead pull-down with immunoblot; settings: protein: recombinant; tags: MBP; label: 5'-biotin on Oligo1; fork 1:2; 31 bp duplex, two 19 nt unpaired arms (3' of Oligo1, 5' of Oligo2)
Chain of MBP-XPA (P23025 whole entry): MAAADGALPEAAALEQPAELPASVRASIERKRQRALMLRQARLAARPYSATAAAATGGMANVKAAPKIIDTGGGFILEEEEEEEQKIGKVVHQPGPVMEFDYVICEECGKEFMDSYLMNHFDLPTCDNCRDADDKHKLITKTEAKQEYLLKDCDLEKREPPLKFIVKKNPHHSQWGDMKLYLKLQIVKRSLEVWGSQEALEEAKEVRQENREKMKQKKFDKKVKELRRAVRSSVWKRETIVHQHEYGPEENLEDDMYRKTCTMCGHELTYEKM

FLAG-Claspin = FLAG-Claspin (UniProt Q9HAW4 1-1339); test: as above; settings: protein: recombinant; tags: FLAG; label: 5'-biotin on Oligo1; fork 1:2; 31 bp duplex, two 19 nt unpaired arms (3' of Oligo1, 5' of Oligo2)
Chain of FLAG-Claspin (Q9HAW4 whole entry): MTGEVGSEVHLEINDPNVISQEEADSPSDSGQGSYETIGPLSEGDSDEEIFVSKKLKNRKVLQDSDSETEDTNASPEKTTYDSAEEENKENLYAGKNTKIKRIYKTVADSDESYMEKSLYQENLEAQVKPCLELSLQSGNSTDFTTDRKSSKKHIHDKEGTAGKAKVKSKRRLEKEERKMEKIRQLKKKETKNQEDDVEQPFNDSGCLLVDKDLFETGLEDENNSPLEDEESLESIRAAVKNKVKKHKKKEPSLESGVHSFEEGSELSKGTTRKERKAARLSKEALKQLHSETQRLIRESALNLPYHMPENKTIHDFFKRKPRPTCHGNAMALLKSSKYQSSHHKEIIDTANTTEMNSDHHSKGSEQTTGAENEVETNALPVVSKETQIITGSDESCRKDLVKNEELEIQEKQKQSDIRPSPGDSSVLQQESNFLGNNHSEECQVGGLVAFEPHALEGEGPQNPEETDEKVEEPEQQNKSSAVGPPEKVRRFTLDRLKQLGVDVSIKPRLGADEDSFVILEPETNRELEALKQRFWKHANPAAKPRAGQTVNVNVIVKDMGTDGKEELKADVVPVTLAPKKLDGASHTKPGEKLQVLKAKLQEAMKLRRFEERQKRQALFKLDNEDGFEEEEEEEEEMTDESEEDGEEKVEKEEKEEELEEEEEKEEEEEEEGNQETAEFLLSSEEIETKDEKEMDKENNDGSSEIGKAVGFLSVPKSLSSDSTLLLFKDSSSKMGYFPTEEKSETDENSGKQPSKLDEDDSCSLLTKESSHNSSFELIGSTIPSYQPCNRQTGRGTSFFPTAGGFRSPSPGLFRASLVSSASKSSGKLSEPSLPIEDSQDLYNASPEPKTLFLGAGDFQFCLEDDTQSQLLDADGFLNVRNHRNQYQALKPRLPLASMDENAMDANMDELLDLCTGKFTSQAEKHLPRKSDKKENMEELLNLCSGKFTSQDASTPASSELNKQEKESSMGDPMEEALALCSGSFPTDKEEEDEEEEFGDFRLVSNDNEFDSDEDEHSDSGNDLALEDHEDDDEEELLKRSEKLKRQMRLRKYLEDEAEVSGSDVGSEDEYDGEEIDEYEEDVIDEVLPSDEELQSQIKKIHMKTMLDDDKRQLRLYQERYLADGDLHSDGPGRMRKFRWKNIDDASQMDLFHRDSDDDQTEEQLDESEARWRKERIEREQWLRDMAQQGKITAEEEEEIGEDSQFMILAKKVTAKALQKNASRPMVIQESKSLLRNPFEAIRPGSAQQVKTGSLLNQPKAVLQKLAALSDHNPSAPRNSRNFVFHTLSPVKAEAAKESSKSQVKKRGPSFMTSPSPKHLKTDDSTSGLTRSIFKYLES

[1] = target: T5, 9-1-1 complex (FLAG-Rad9-Hus1-Rad1) (UniProt Q99638;O60921;O60671 1-391;1-280;1-282); test: as above; settings: protein: recombinant; tags: FLAG on Rad9; copies: 1;1;1; label: 5'-biotin on Oligo1; fork 1:2; 31 bp duplex, two 19 nt unpaired arms (3' of Oligo1, 5' of Oligo2)
T5 sequence 1: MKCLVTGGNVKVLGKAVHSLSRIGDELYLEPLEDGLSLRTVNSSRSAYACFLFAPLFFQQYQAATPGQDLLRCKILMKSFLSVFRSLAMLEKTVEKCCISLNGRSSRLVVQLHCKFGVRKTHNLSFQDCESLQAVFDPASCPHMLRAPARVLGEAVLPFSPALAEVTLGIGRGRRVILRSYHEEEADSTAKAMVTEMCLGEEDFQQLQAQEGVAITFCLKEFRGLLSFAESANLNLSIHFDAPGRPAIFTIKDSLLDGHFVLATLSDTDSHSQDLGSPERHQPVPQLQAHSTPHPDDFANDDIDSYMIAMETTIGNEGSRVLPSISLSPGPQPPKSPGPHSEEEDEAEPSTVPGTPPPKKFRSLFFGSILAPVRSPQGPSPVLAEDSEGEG
T5 sequence 2: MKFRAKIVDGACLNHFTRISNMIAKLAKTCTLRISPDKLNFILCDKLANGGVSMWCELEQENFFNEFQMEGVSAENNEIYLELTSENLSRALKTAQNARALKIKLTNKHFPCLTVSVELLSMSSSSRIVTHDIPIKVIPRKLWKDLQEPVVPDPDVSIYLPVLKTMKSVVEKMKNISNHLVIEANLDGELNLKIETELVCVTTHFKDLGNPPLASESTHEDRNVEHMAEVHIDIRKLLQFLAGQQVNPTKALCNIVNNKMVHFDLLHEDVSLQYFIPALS
T5 sequence 3: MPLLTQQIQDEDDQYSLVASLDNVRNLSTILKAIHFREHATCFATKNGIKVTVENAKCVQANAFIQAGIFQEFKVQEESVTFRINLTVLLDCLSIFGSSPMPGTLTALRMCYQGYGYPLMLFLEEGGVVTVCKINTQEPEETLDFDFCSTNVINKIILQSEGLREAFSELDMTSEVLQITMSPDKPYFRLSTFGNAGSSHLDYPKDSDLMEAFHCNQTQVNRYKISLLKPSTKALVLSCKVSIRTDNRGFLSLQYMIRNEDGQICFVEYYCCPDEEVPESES

FLAG-Timeless = FLAG-Timeless (UniProt Q9UNS1 1-1208); test: as above; settings: protein: recombinant; tags: FLAG; label: 5'-biotin on Oligo1; fork 1:2; 31 bp duplex, two 19 nt unpaired arms (3' of Oligo1, 5' of Oligo2)
Chain of FLAG-Timeless (Q9UNS1 whole entry): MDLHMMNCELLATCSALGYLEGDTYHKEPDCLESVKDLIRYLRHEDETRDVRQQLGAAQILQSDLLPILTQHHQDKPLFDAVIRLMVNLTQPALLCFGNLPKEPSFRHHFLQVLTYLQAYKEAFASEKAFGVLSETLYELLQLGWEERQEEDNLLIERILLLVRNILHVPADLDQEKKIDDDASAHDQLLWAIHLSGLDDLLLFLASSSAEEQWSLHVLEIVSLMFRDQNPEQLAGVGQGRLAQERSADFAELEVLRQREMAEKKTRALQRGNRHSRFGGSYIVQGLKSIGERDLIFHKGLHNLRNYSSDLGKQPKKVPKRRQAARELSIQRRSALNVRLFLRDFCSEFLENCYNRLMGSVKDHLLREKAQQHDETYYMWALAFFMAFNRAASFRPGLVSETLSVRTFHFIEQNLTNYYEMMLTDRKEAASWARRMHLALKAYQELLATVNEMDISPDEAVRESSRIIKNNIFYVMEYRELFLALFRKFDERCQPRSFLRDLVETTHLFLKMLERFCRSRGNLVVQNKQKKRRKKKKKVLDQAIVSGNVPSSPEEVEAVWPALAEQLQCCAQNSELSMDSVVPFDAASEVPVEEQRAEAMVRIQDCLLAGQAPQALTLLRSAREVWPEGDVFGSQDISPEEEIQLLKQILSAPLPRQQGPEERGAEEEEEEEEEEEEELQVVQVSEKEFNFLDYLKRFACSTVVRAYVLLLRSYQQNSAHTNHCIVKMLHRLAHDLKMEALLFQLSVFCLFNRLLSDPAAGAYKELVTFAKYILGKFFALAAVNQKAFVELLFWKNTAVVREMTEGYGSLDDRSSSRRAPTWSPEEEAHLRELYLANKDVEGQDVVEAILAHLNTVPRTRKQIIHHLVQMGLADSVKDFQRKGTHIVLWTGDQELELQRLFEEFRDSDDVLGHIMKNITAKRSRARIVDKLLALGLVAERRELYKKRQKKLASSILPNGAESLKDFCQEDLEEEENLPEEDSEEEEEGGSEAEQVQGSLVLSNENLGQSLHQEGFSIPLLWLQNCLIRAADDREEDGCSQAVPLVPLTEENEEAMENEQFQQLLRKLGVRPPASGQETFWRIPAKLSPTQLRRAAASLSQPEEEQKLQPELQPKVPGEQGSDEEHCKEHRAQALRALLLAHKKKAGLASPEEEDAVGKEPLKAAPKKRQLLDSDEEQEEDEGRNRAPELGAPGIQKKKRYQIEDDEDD

FLAG-Timeless;Tipin-His = FLAG-Timeless;Tipin-His (human?;human?, UniProt Q9UNS1;Q9BVW5 1-1208;1-301, |); test: as above; settings: protein: recombinant;recombinant; tags: FLAG;His; copies: 1;1; label: 5'-biotin on Oligo1; fork 1:2; 31 bp duplex, two 19 nt unpaired arms (3' of Oligo1, 5' of Oligo2)
Chain of FLAG-Timeless;Tipin-His (Q9UNS1 whole entry, one chain of several): as the sequence (Q9UNS1 whole entry) above

[2] = label: 5'-biotin on Oligo1, fork 1:2, 31 bp duplex, two 19 nt unpaired arms (3' of Oligo1, 5' of Oligo2)

Measured: binding result

GACGCTGCCGAATTCTGGCTTGCTAGGACATCTTTGCCCACGTTGACCCG (ssDNA) [ssDNA 50-mer (Oligo1)]
binds: His-Chk1; label: 5'-biotin | FAAP24-His; label: 5'-biotin | RPA (heterotrimer); label: 5'-biotin

B1: fork DNA (Oligo1/Oligo2) (mixed)
DNA 1: GACGCTGCCGAATTCTGGCTTGCTAGGACATCTTTGCCCACGTTGACCCG
DNA 2: GCGATAGTCTCTAGACAGCATGTCCTAGCAAGCCAGAATTCGGCAGCGTC
binds: FLAG-ATRIP | Tipin-His | His-Chk1; [2] | MBP-XPA | FLAG-Claspin | [1] | FLAG-Timeless | FLAG-Timeless;Tipin-His | FAAP24-His; [2] | RPA (heterotrimer); [2]
